Measurements as given in publication PMC3904721, “The BEL1-like family of transcription factors in potato”.

T1: StBEL5-GST;POTH1-GST (Solanum tuberosum (potato);Solanum …, UniProt Q8LLE4;P93588 1-688;1-345, |)
T1 sequence 1: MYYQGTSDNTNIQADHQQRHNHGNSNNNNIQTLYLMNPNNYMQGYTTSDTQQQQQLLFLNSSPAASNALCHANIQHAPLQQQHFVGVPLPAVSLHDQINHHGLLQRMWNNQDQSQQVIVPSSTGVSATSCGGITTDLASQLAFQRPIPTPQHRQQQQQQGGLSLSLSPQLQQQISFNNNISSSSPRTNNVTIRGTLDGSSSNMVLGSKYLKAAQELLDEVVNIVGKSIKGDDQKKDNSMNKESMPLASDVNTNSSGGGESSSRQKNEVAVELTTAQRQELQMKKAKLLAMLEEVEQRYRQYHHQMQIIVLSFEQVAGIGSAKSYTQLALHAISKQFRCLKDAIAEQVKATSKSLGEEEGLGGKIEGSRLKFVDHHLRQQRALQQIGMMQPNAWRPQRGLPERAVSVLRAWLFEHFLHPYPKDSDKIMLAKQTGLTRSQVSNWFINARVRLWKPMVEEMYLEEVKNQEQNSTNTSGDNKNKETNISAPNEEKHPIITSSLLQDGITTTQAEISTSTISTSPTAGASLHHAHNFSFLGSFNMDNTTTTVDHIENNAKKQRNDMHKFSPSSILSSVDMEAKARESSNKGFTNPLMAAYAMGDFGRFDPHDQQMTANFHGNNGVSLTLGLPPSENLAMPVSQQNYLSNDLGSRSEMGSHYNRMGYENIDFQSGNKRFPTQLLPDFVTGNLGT
T1 sequence 2: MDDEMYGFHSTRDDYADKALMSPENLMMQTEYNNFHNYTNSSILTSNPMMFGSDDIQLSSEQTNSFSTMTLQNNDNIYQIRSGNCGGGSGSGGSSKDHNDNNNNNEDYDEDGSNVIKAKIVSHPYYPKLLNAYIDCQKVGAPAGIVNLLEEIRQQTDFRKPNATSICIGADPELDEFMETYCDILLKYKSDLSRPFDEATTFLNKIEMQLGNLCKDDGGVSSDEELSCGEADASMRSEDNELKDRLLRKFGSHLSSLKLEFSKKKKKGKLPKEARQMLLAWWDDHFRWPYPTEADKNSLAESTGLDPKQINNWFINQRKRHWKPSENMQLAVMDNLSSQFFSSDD


Assays:
[1] = target: NTH1 (tobacco); assay: two-hybrid; Matchmaker system (Clontech), yeast strain pJ69-2A; StBELs in pACT-AD (GAL4 activation domain), KNOX proteins in pBridge (GAL4-binding domain); co-transformation, selection on -Leu/-Trp/-His/-Ade; lacZ induction quantified by β-galactosidase assay (Miller units), three replicate samples
[2] = target: POTATO HOMEOBOX1 (POTH1) (potato); assay: as above
[3] = target: T1, StBEL5-GST;POTH1-GST; assay: EMSA; 2 mM Mg2+; 20 mM HEPES pH 7.5, 50 mM KCl, 2 mM MgCl2, 0.5 mM EDTA, 1 mM DTT, 10% glycerol, 0.5% Triton X-100, 20 ng/ul BSA, 50 ng/ul poly(dI-dC), 20 ul, on ice 60 min; 10; details: protein: recombinant;recombinant; tags: C-terminal GST;C-terminal GST; copies: 1;1; label: 3' biotin; blunt

Molecule	beta-galactosidase activity [1]	also measured
StBEL13 (from UniProt M1AMS7 1-738) (natural protein)	233 units	–
StBEL33 (from UniProt M1C8Y5 1-505) (natural protein)	–	beta-galactosidase activity [2]: 274 units
StBEL31 (from UniProt M0ZWL8 1-423) (natural protein)	25 Miller units	–
StBEL6 (natural protein)	58 Miller units	–
StBEL34 bait (BEL34S/BEL34A) (dsDNA) DNA 1: CCTTTCAATAAGATTATTGACGGTGACAATACTCGCCGTCAAA DNA 2: TTTGACGGCGAGTATTGTCACCGTCAATAATCTTATTGAAAGG	–	binding result [3]: binds
